# Test results reported in article PMC9657779, “Regulatory Role of Sphingosine-1-Phosphate and C16:0 Ceramide, in Immunogenic Cell Death of Colon Cancer Cells Induced by Bak/Bax-Activation” (Cancers, 2022).
# B1: calreticulin (natural protein, human (endogenous in DLD-1), UniProt P27797 18-417, looked up)
# chain: EPAVYFKEQFLDGDGWTSRWIESKHKSDFGKFVLSSGKFYGDEEKDKGLQTSQDARFYALSASFEPFSNKGQTLVVQFTVKHEQNIDCGGGYVKLFPNSLDQTDMHGDSEYNIMFGPDICGPGTKKVHVIFNYKGKNVLINKDIRCKDDEFTHLYTLIVRPDNTYEVKIDNSQVESGSLEDDWDFLPPKKIKDPDASKPEDWDERAKIDDPTDSKPEDWDKPEHIPDPDAKKPEDWDEEMDGEWEPPVIQNPEYKGEWKPRQIDNPDYKGTWIHPEIDNPEYSPDPSIYAYDNFGVLGLDLWQVKSGTIFDNFLITNDEAYAEEFGNETWGVTKAAEKQMKDKQDEEQRLKEEEEDKKRKEEEEAEDKEDDEDKDEDEEDEEDKEEDEEEDVPGQAKDEL
# notes: calreticulin (CRT), the normally ER resident chaperone, endogenous in human colorectal DLD-1 cells; Seen as a disulfide-linked dimer on Western blots run under non-reducing conditions; also called CRT; ectoCRT; source: endogenous, DLD-1 whole cell lysate (RIPA)
# Target: the molecule itself
# Assay: non-reducing SDS-PAGE and Western blot; whole cell lysates of DLD-1 cells treated with ABT/AZD or MTX, with or without PF-543 (also thapsigargin, fumonisin B1; CerS6 knock-out cells), under non-reducing conditions, blotted for CRT; disulfide-linked dimer
protein,measurement,value
B1,stoichiometry N,2
